Test [1] addresses CEA on LS174T colo-rectal tumour cells (UniProt P06731). The experiment in a line: cell-based or functional assay.
Test [2] concerns the target T1, CEA (Carcinoembryonic antigen), purified antigen (UniProt P06731 35-685, limits assumed).
T1 construct: Purified CEA, 50 ng per well in the CEA ELISA; also called native CEA; untreated CEA
T1 sequence (looked up): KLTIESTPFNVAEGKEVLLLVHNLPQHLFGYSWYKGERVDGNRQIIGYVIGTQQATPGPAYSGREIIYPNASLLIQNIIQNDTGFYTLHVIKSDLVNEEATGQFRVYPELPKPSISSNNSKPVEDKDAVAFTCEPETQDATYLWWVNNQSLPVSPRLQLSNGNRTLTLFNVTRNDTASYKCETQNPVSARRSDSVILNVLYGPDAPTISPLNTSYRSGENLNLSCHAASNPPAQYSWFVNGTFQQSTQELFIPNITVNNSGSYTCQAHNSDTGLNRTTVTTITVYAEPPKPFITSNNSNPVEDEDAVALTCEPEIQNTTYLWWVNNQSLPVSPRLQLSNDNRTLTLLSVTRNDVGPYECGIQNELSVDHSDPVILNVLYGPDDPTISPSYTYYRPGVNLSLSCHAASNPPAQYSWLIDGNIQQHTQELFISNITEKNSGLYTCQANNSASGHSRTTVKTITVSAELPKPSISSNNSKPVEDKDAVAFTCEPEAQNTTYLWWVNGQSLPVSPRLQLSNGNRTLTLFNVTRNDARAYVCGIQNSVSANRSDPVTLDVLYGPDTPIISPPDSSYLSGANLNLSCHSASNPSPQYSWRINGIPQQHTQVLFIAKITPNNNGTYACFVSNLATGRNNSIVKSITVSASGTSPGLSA
The experiment in a line: EIA of hybridoma supernatants against native CEA; line 806.077 was cloned from one of the positive wells.

Test [3] deals with T1, CEA (Carcinoembryonic antigen), …. The experiment in a line: CEA ELISA on media from NS0 clones, detected with anti-human kappa peroxidase conjugate. For orientation: In an ELISA, binding on a coated surface is turned into a signal by an enzyme label.
Source text: Media from wells containing single viable clones was taken for testing and replaced with fresh media (containing G418).
Test [4] has the same target. Description: CEA ELISA (50 ng CEA per well) on NS0 culture supernatants, detected with HRPO anti-human kappa. The protocol: (§1) For the CEA ELISA each well of a 96 well immunoplate (NUNC MAXISORB™) was coated with 50 ng CEA in 50 mM carbonate/bicarbonate coating buffer pH9.6 (buffer capsules—Sigma C3041) and incubated at 4° C. overnight. The plate was washed three times with PBS+0.05% Tween 20 and then blocked 150 μl per well of 1% BSA in PBS +0.05% Tween 20 for 1 hour at room temperature. The plate was washed as previously described, 100 μl of test sample added per well and incubated at room temperature for 2 hours. Again the plate was washed three times with PBS+0.05% Tween 20, 100 μl per well of a 1/500 dilution of HRPO-labelled goat anti-human kappa antibody (Sigma A 7164) was added, in 1% BSA in PBS-Tween 20 and incubated at room temperature on a rocking platform for at least 1 hour. The plate was washed as before and then once more with PBS. To detect binding add 100 μl per well developing solution (one capsule of phosphate-citrate buffer—Sigma P4922—dissolved in 100 mls H₂O to which is added one 30 mg tablet o-phenylenediamine dihydrochloride—Sigma P8412) and incubated for up to 15 minutes. The reaction was stopped by adding 75 μl 2M H₂SO₄, and absorbance read at 490 nm.

Test [5] shares this target. The experiment in a line: CEA ELISA on NS0 culture supernatants (Example 39). The protocol: as §1
(§2) As before, the human F(ab′)₂ antibody fragment was then purified from the culture supernatant as described in Example 102.

Test [6] shares this target. The experiment in a line: CEA ELISA on NS0 culture supernatants (Example 41). The protocol:
as §1, §2

The target is the same in test [7]. The experiment in a line: CEA ELISA on NS0 culture supernatants (Example 42). The protocol:
as §1, §2

For test [8] the target is unchanged. The experiment in a line: CEA ELISA on NS0 culture supernatants (Example 43). The protocol: as §1, §2
Test [9] has the same target. Description: CEA ELISA on NS0 culture supernatants (Example 45). The protocol:
as §1, §2

Test [10] shares this target. Description: CEA ELISA on NS0 culture supernatants (Example 47). The protocol:
as §1, §2

Test [11] shares this target. The experiment in a line: CEA ELISA on NS0 culture supernatants (Example 14). The protocol: as §1

The values that follow come from patent US20020142359A1 (AstraZeneca / MedImmune, published 2002).

As to “human B7.1-murine A5B7 F(ab')2 fusion protein (AB7)”, in [1], the [3H] thymidine incorporation by T cells on anti-CD3 coated wells (T cells + LS174T/fusion protein) came to 41800 cpm; the [3H] thymidine uptake, fold over no co-stimulation is over 11 fold; the [3H] thymidine uptake, fold over tumour cells alone is over 3 fold.

B1: 806.077 antibody (antibody, V domains shown)
VH: EVQLQQSGAELVRSGASVKLSCTASGFNIKDNYMHWVKQRPEQGLEWIAWIDPENGDTEYAPKFRGKATLTADSSSNTAYLHLSSLTSEDTAVYYCHVLIYAGYLAMDYWGQGTSVAVSS
VL: DIELTQSPAIMSASPGEKVTITCSASSSVTYMHWFQQKPGTSPKLWIYSTSNLASGVPARFSGSGSGTSYSLTISRMEAEDAATYYCQQRSTYPLTFGAGTKLELKR
notes: The cDNA primers hybridise to murine IgG1 CH1 and murine kappa constant regions
Regarding B1, in test [2], the binding result was “binds”.

B2: pro-[A248S,G251T,D253K]HCPB-linker-F(ab')2(humanised 806.077) (other)
heavy: HHGGEHFEGEKVFRVNVEDENHINIIRELASTTQIDFWKPDSVTQIKPHSTVDFRVKAEDTVTVENVLKQNELQYKVLISNLRNVVEAQFDSRVRATGHSYEKYNKWETIEAWTQQVATENPALISRSVIGTTFEGRAIYLLKVGKAGQNKPAIFMDCGFHAREWISPAFCQWFVREAVRTYGREIQVTELLDKLDFYVLPVLNIDGYIYTWTKSRFWRKTRSTHTGSSCIGTDPNRNFDAGWCEIGASRNPCDETYCGPAAESEKETKALADFIRNKLSSIKAYLTIHSYSQMMIYPYSYAYKLGENNAELNALAKATVKELASLHGTKYTYGPGATTIYPSAGTSKDWAYDQGIRYSFTFELRDTGRYGFLLPESQIRATCEETFLAIKYVASYVLEHLYGGGSGGGSGGGSEVQLQQSGPGLVRPSQTLSLTCTASGFNIKDNYMHWVRQPPGRGLEWIGWIDPENGDTEYAPKFRGRVTMLADTSKNQFSLRLSSVTAADTAVYYCHVLIYAGYLAMDYWGQGTLVTVSSASTKGPSVFPLAPCSRSTSGGTAALGCLVKDYFPEPVTVSWNSGALTSGVHTFPAVLQSSGLYSLSSVVTVPSSSLGTQTYTCNVNHKPSNTKVDKRVELKTPLGDTTHTCPRCPEPKSCDTPPPCPRCPEPKSCDTPPPCPRCPEPKSCDTPPPCPRCPAPELLGG
light: DIQMTQSPSSLSASVGDRVTITCSASSSVTYMHWYQQKPGKAPKLWIYSTSNLASGVPSRFSGSGSGTDYTFTISSLQPEDIATYYCQQRSTYPLTFGQGTKLEIKRTVAAPSVFIFPPSDEQLKSGTASVVCLLNNFYPREAKVQWKVDNALQSGNSQESVTEQDSKDSTYSLSSTLTLSKADYEKHKVYACEVTHQGLSSPVTKSFNRGEC
notes: Antibody-enzyme fusion secreted by NS0 cells
As to B2, in test [3], the binding result is recorded as “binds”.

B3: humanised 806.077 HuVH1/HuVK1 HuIgG2 F(ab')2 (Initial humanised antibody) (antibody, V domains shown)
VH: EVQLQQSGPGLVRPSQTLSLTCTASGFNIKDNYMHWVRQPPGRGLEWIGWIDPENGDTEYAPKFRGRVTMLADTSKNQFSLRLSSVTAADTAVYYCHVLIYAGYLAMDYWGQGTLVTVSS
VL: DIQMTQSPSSLSASVGDRVTITCSASSSVTYMHWYQQKPGKAPKLLIYSTSNLASGVPSRFSGSGSGTDYTFTISSLQPEDIATYYCQQRSTYPLTFGQGTKLEIKR
notes: F(ab')2 fragment secreted by NS0 cells and tested as culture supernatant
Regarding B3, the binding result in test [4] is listed as “binds”.

B4: humanised 806.077 HuVH1/HuVK1 HuIgG1 F(ab')2 (antibody, V domains shown)
VH: EVQLQQSGPGLVRPSQTLSLTCTASGFNIKDNYMHWVRQPPGRGLEWIGWIDPENGDTEYAPKFRGRVTMLADTSKNQFSLRLSSVTAADTAVYYCHVLIYAGYLAMDYWGQGTLVTVSS
VL: DIQMTQSPSSLSASVGDRVTITCSASSSVTYMHWYQQKPGKAPKLLIYSTSNLASGVPSRFSGSGSGTDYTFTISSLQPEDIATYYCQQRSTYPLTFGQGTKLEIKR
notes: F(ab')2 fragment from NS0 supernatant; also called HuVH1-HuIgG1 + HuVK1-HuCK
With B4, the binding result in test [5] is given as “binds”.

B5: humanised 806.077 HuVH1/HuVK1 HuIgG3 F(ab')2 (antibody, V domains shown)
VH: EVQLQQSGPGLVRPSQTLSLTCTASGFNIKDNYMHWVRQPPGRGLEWIGWIDPENGDTEYAPKFRGRVTMLADTSKNQFSLRLSSVTAADTAVYYCHVLIYAGYLAMDYWGQGTLVTVSS
VL: DIQMTQSPSSLSASVGDRVTITCSASSSVTYMHWYQQKPGKAPKLLIYSTSNLASGVPSRFSGSGSGTDYTFTISSLQPEDIATYYCQQRSTYPLTFGQGTKLEIKR
notes: F(ab')2 fragment from NS0 supernatant; also called HuVH1-HuIgG3 + HuVK1-HuCK
With B5, the binding result in test [6] is on record as “binds”.

B6: humanised 806.077 HuVH1/HuVK3 HuIgG1 F(ab')2 (antibody, V domains shown)
VH: EVQLQQSGPGLVRPSQTLSLTCTASGFNIKDNYMHWVRQPPGRGLEWIGWIDPENGDTEYAPKFRGRVTMLADTSKNQFSLRLSSVTAADTAVYYCHVLIYAGYLAMDYWGQGTLVTVSS
VL: QIVLTQSPSSLSASVGDRVTITCSASSSVTYMHWYQQKPGKAPKLLIYSTSNLASGVPSRFSGSGSGTDYTFTISSLQPEDIATYYCQQRSTYPLTFGQGTKLEIKR
notes: F(ab')2 fragment from NS0 supernatant; also called HuVH1-HuIgG1 + HuVK3-HuCK
Turning to B6, in test [7], the binding result is recorded as “binds”.

B7: humanised 806.077 HuVH1/HuVK3 HuIgG2 F(ab')2 (antibody, V domains shown)
VH: EVQLQQSGPGLVRPSQTLSLTCTASGFNIKDNYMHWVRQPPGRGLEWIGWIDPENGDTEYAPKFRGRVTMLADTSKNQFSLRLSSVTAADTAVYYCHVLIYAGYLAMDYWGQGTLVTVSS
VL: QIVLTQSPSSLSASVGDRVTITCSASSSVTYMHWYQQKPGKAPKLLIYSTSNLASGVPSRFSGSGSGTDYTFTISSLQPEDIATYYCQQRSTYPLTFGQGTKLEIKR
notes: F(ab')2 fragment from NS0 supernatant
As to B7, in [8], the binding result is listed as “binds”.

B8: humanised 806.077 HuVH1/HuVK4 HuIgG1 F(ab')2 (antibody, V domains shown)
VH: EVQLQQSGPGLVRPSQTLSLTCTASGFNIKDNYMHWVRQPPGRGLEWIGWIDPENGDTEYAPKFRGRVTMLADTSKNQFSLRLSSVTAADTAVYYCHVLIYAGYLAMDYWGQGTLVTVSS
VL: DIQMTQSPSSLSASVGDRVTITCSASSSVTYMHWYQQKPGKAPKLWIYSTSNLASGVPSRFSGSGSGTDYTFTISSLQPEDIATYYCQQRSTYPLTFGQGTKLEIKR
notes: F(ab')2 fragment from NS0 supernatant; also called HuVH1-HuIgG1 + HuVK4-HuCK
Turning to B8, in [9], the binding result was “binds”.

B9: humanised 806.077 HuVH1/HuVK4 HuIgG3 F(ab')2 (antibody, V domains shown)
VH: EVQLQQSGPGLVRPSQTLSLTCTASGFNIKDNYMHWVRQPPGRGLEWIGWIDPENGDTEYAPKFRGRVTMLADTSKNQFSLRLSSVTAADTAVYYCHVLIYAGYLAMDYWGQGTLVTVSS
VL: DIQMTQSPSSLSASVGDRVTITCSASSSVTYMHWYQQKPGKAPKLWIYSTSNLASGVPSRFSGSGSGTDYTFTISSLQPEDIATYYCQQRSTYPLTFGQGTKLEIKR
notes: F(ab')2 fragment from NS0 supernatant; also called HuVH1-HuIgG3 + HuVK4-HuCK
In the case of B9, the binding result in [10] is reported as “binds”.

B10: humanised 806.077 HuVH1/HuVK4 HuIgG2 F(ab')2 (antibody, V domains shown)
VH: EVQLQQSGPGLVRPSQTLSLTCTASGFNIKDNYMHWVRQPPGRGLEWIGWIDPENGDTEYAPKFRGRVTMLADTSKNQFSLRLSSVTAADTAVYYCHVLIYAGYLAMDYWGQGTLVTVSS
VL: DIQMTQSPSSLSASVGDRVTITCSASSSVTYMHWYQQKPGKAPKLWIYSTSNLASGVPSRFSGSGSGTDYTFTISSLQPEDIATYYCQQRSTYPLTFGQGTKLEIKR
notes: as for B7
In the case of B10, the binding result in test [11] is reported as “binds”.
